Experimental findings from US5595877, “Methods of producing nucleic acid ligands” (NeXstar Pharmaceuticals, Inc.) are described below.

This series deals with HIV-1 reverse transcriptase (HIV-RT) (HIV-1, UniProt P04585;P04585 P04585:588-1147,P04585:588-1027). Kind of series: footprint; chemical modification protection and modification interference; 200 mM KOAc, 50 mM Tris-HCl pH 7.7, 37 C. To be noted: pseudoknot. The procedure:
Affinity assays with labeled RNA and HIV-RT. Model RNAs for refinement of the 5' and 3' boundaries and for determination of the effect of substitutions were labeled during transcription with T7 RNA polymerase as described in Tuerk et al. (1990) except that a-32P-ATP was used, in reactions of 0.5 mM C,G, and UTP with 0.05 mM ATP. Synthetic oligonucleotides and phosphatased transcripts (as in Tuerk et al., 1990) were kinased as described in Gauss et al. (1987). All RNA-protein binding reactions were done in a "binding buffer" of 200 mM KOAc, 50 mM Tris-HCl pH 7.7, 10 mM dithiothreitol with exceptions noted for chemical protection experiments below. RNA and protein dilutions were mixed and stored on ice for 30 minutes then transferred to 37° C. for 5 minutes. […] Each reaction was suctioned through a pre-wet (with binding buffer) nitrocellulose filter and rinsed with 3 mls of binding buffer after which it was dried and counted for assays or subjected to elution and assayed for chemical modification. In comparisons of binding affinity, results were plotted and the protein concentration at which half-maximal binding occurred (the approximate Kd in conditions of protein excess) was determined graphically.
Selection of modified RNAs by HIV-RT. […] The extent of modification interference by ENU was determined by densitometric scanning of films using an LKB laser densitomer.

B1: lengthened ligand B RNA (ssRNA)
RNA: GGUCCGAAGUGCAACGGGAAAAUGCACUAUGAAAGAAUUUUAUAUCUCUAUUGAAAC
On to B1, for which the binding result is given as “binds”.
